Results reported in article doi:10.1101/848226.

Molecular target: mCherry-CARACB(G15V) (barley (Hordeum vulgare))
Assay: FRET or BRET

GFP lifetime: 2.2 ns
Substance: GFP-RIC157 (natural protein)
